The text below walks through data of US20250129150A1 (APOGEE THERAPEUTICS, published 2025).

Read-outs that look alike come from different tables or passages of the source.

Test [1] concerns the target T1, hIL-13 (human, UniProt P35225 35-146, limits assumed).
T1 construct: IL-13 as used in the cell assays, the ELISA, the binning study and HDX-MS/XL-MS; also called human IL-13; Hu IL-13
In words: ELISA.

The target of test [2] is T1, hIL-13. In words: cell-based or functional assay.
The target in test [3] is T1, hIL-13. In words: cell-based or functional assay. The source holds these as a separate data set.
Test [4] addresses T1, hIL-13. In words: cell-based or functional assay. This is another data set of the same source.
In test [5] the target is T1, hIL-13. Briefly: cell-based or functional assay. The source holds these as a separate data set.
Test [6] has as its target T1, hIL-13. In words: cell-based or functional assay. The source holds these as a separate data set.
The target of test [7] is T1, hIL-13. In words: cell-based or functional assay. The source holds these as a separate data set.
In test [8] the target is T2, Recombinant Human IL-13 Protein, His Tag (Acro Cat. IL3-H52H4) (human, UniProt P35225 35-146).
T2 construct: Bought protein; also called Hu IL-13; not shown: His Tag
T2 sequence (P35225 other isoform, or with tags, fused parts or gaps limits assumed): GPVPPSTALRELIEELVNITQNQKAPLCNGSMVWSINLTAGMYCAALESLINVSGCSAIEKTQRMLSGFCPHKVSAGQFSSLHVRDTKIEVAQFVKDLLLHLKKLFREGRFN
In words: SPR (Biacore 8K), mAb captured on Protein G chip, IL-13 as analyte. The protocol: Samples were injected in a multi-cycle manner over freshly captured mAb, by regenerating the capture surfaces with injection of glycine pH 1.5 for 30 sec at a flow rate of 30 μL/min. The data was processed and analyzed with Biacore Insight Evaluation Software Version 2.0.15.12933 (GE Healthcare) as follows. […] The responses from the two buffer blank injections were then subtracted from the reference subtracted data (2-1) to yield double-referenced data, which were fit to an 1:1 binding model to determine the apparent association (ka) and dissociation rate constants (kd). Their ratio provided the apparent equilibrium dissociation constant or affinity constant (KD=kd/ka).

The target of test [9] is T2, Recombinant Human IL-13 Protein, His …. The test is described as above. In outline: (§1)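 Antigen injected multi-cycle over freshly captured mAb; surfaces regenerated with glycine pH 1.5 for 30 sec. Double-referenced sensorgrams fit to a 1:1 binding model for apparent ka and kd; KD = kd/ka.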
The source holds these as a separate data set.

The target of test [10] is T3, Recombinant Cynomolgus IL-13 Protein, His Tag (SINO BIOLOGICAL, Cat. 11057-C07H) (cynomolgus monkey, UniProt Q5I6E4 19-132 (Macaca thibetana entry)).
T3 construct: also called Cyno IL-13; cynomolgus monkey IL-13
T3 chain: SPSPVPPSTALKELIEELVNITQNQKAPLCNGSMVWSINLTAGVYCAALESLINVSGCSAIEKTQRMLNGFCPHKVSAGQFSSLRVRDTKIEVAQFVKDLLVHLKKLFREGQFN
The test is described as above. In outline: as §1

The target in test [11] is T4, recombinant human FcRn (human, UniProt P55899 24-297; P61769 21-119).
T4 construct: also called neonatal Fc receptor
T4 sequence (P55899 24-297 limits assumed, chain 1 of 2): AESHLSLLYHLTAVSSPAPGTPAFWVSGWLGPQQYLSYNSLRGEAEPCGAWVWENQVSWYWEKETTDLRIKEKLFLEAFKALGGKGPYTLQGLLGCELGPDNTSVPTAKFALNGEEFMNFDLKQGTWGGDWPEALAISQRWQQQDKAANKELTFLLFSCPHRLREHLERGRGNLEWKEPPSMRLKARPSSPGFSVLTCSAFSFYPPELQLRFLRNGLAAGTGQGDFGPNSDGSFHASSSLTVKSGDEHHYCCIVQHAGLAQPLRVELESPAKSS
T4 sequence (P61769 21-119 limits assumed, chain 2 of 2): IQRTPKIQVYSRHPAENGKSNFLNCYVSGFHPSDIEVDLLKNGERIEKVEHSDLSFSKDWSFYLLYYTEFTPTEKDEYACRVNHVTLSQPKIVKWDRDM
Briefly: SPR, antibody captured on anti-kappa chip, FcRn as analyte, pH 5.8; pH 5.8. Here is the method:
(§2) Binding affinity (KD) of antibodies to Fc receptors and C1q were determined through surface plasmon resonance (SPR) using a Biacore 8K. Briefly, an SPR chip functionalized with an anti-kappa light-chain antibody was used to capture purified antibodies normalized to […], at a flow rate of 10 uL/min for 90 seconds or 120 seconds. A paired channel with only buffer was used as reference. Subsequently, varying concentrations of recombinant human CD32a (167H), CD32a (167R), CD32b, CD16a (176V), CD16a (176F), FcRn, CD64, and C1q were injected over the surface with captured purified antibody as well as the reference channel. Regeneration of the chip between different concentrations of different antigens were performed with 10 mM Glycine HCl, pH 1.5 and antibody was again captured. Association and dissociation rate constants were subsequently determined through fitting to a 1:1 Langmuir binding model or steady-state analysis model, whichever applicable, using the Biacore Insight Evaluation Software from which a KD value was derived.

Test [12] concerns the target T5, recombinant human CD32a (167R) (human, UniProt P12318 36-218).
T5 sequence (looked up): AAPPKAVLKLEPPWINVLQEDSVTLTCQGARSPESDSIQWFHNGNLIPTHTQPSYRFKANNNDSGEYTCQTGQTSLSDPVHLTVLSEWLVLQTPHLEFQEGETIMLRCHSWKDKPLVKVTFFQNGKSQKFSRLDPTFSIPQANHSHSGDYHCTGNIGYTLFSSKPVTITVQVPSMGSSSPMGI
Briefly: SPR, antibody captured on anti-kappa chip, recombinant human receptor as analyte. The protocol: as §2

Test [13] concerns the target T6, recombinant human CD32b (human, UniProt P31994 46-217).
T6 sequence (looked up): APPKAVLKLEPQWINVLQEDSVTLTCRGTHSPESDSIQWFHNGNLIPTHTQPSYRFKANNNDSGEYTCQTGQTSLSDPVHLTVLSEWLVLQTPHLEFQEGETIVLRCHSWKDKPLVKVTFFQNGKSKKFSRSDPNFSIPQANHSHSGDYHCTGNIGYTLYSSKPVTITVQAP
The test is described as above. Here is the method: as §2

Test [14] addresses recombinant human CD16a (176V) (human, UniProt P08637 17-208). Described as above. The protocol: as §2
For test [15], the target named is recombinant human CD64 (human, UniProt P12314 16-288). Described as above. Here is the method:
as §2

Test [16] addresses T7, recombinant human C1q (human, UniProt P02745 23-245; P02746 28-253; P02747 29-245, limits assumed).
T7 construct: subunit composition is from general knowledge
Briefly: SPR, antibody captured on anti-kappa chip, C1q as analyte; signal relative to rituximab. Here is the method: as §2

Test [17] addresses biotinylated hIL-13 (human, UniProt P35225 35-146, limits assumed, biotinylated (site not stated)). In words: FACS; blockade of biotinylated hIL-13 (0.05 ug/mL) binding to HEK293 cells expressing hIL-13Rα1/hIL-4Rα. Summed up: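 HEK293 cells stably co-expressing hIL-13Rα and hIL-4Rα (200,000/well) stained at 4 °C for 1 h, then a further 1 h at 4 °C in the dark. Median fluorescence intensity read by flow cytometry.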

T1 sequence (P35225 other isoform, or with tags, fused parts or gaps limits assumed): as the sequence (P35225 other isoform, or with tags, fused parts or gaps limits assumed) above
Chain of recombinant human CD64 (P12314 16-288 limits assumed): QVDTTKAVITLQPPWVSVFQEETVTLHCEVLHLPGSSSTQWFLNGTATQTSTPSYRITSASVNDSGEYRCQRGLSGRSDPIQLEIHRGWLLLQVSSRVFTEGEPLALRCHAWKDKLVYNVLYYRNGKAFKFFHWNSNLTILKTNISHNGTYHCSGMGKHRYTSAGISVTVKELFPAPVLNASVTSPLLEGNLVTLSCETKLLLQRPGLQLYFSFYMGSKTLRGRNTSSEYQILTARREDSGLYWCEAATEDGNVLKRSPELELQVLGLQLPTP
Chain of recombinant human CD16a (176V) (P08637 17-208 F176V): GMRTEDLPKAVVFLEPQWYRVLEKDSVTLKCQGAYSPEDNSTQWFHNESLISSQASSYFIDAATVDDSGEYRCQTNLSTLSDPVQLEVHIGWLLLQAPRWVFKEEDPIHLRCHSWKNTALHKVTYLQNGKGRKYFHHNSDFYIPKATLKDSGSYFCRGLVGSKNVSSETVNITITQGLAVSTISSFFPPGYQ
T7 sequence (P02745 23-245 limits assumed, chain 1 of 3): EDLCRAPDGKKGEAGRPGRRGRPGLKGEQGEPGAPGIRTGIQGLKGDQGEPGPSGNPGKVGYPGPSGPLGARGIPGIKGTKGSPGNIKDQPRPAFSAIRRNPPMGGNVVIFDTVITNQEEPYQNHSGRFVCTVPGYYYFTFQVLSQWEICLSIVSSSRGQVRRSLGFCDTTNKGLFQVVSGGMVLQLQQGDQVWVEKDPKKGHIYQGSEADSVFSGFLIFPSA
T7 sequence (P02746 28-253 limits assumed, chain 2 of 3): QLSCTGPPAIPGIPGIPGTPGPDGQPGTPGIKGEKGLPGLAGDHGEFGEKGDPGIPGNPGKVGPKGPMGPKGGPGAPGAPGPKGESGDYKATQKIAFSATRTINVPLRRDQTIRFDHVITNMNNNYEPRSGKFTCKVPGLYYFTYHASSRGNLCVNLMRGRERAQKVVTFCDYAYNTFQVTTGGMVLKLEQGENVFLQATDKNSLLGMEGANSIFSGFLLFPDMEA
T7 sequence (P02747 29-245 limits assumed, chain 3 of 3): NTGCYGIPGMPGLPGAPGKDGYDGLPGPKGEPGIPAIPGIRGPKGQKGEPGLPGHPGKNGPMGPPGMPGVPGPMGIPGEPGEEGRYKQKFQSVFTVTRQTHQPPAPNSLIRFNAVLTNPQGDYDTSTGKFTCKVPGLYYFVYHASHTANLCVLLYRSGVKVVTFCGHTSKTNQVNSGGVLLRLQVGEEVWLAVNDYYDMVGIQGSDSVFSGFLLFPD
Chain of biotinylated hIL-13 (P35225 other isoform, or with tags, fused parts or gaps limits assumed): as the sequence (P35225 other isoform, or with tags, fused parts or gaps limits assumed) above

B1: Construct 133 (antibody, human IgG1, kappa, L234A L235A)
heavy: EVQLQESGPGLVKPSETLSLTCTVSGFSLNAYSVNWIRQPPGKGLEWLGMIWGDGKIVYNSALKSRLTISKDSSKNQVSLKLSSVTAADTAVYYCAGDGYYPYAMDNWGQGTTVTVSSASTKGPSVFPLAPSSKSTSGGTAALGCLVKDYFPEPVTVSWNSGALTSGVHTFPAVLQSSGLYSLSSVVTVPSSSLGTQTYICNVNHKPSNTKVDKKVEPKSCDKTHTCPPCPAPEAAGGPSVFLFPPKPKDTLYITREPEVTCVVVDVSHEDPEVKFNWYVDGVEVHNAKTKPREEQYNSTYRVVSVLTVLHQDWLNGKEYKCKVSNKALPAPIEKTISKAKGQPREPQVYTLPPSRDELTKNQVSLTCLVKGFYPSDIAVEWESNGQPENNYKTTPPVLDSDGSFFLYSKLTVDKSRWQQGNVFSCSVMHEALHNHYTQKSLSLSPG
light: DIQLTQSPSSLSASVGDRVTITCRASKSVDSYGNSFMHWYQQKPGKAPKLLIYLASNLESGVPSRFSGSGSGTDFTLTISSLQPEDFATYYCQQNNEDPRTFGGGTKVEIKRTVAAPSVFIFPPSDEQLKSGTASVVCLLNNFYPREAKVQWKVDNALQSGNSQESVTEQDSKDSTYSLSSTLTLSKADYEKHKVYACEVTHQGLSSPVTKSFNRGEC
notes: also called HC1; LC6
Consider B1, for which the Kd in test [1] was found to be 0.019 nM; in test [8], 0.077 nM; in test [9] it was 0.0777 nM; in test [10], 0.208 nM; in [11] it was 150 nM. For the same molecule, the “TF-1 Proliferation Inhibition IC50” value is 0.16 nM in [2] and 0.15 nM in test [5]. Besides, in test [3], the “pSTAT6 Inhibition IC50 (HT-29 cells)” value was determined as 0.28 nM. Further, the “TARC Inhibition IC50 (A549 cells)” value in [4] came to 0.86 nM. Moreover, the “CD23 Expression Inhibition IC50 (human PBMCs)” value in test [6] amounted to 0.85 nM. Further, in [6], the “pSTAT6 Inhibition IC50 (human PBMCs)” value amounted to 0.44 nM. Moreover, the “CCL2 Secretion IC50 (HaCaT cells)” value in [7] stood at 0.077 nM. In test [7], the “CCL26 Secretion IC50 (HaCaT cells)” value was 0.06 nM. The “NTRK1 Expression IC50 (HaCaT cells)” value in test [7] came to 0.062 nM. Moreover, the binding result in [12], in [13], in [14] and in test [15] was “no binding” throughout. The “C1q (Signal Relative to Rituximab)” value in test [16] turned out to be 15.9%. Besides, the IC50 in test [17] is 0.89 nM.
